From patent publication US20250170268A1 (Merck KGaA, published 2025)

Biological target: T1, Human CEACAM5 protein (human, UniProt P06731 35-702)
T1 sequence: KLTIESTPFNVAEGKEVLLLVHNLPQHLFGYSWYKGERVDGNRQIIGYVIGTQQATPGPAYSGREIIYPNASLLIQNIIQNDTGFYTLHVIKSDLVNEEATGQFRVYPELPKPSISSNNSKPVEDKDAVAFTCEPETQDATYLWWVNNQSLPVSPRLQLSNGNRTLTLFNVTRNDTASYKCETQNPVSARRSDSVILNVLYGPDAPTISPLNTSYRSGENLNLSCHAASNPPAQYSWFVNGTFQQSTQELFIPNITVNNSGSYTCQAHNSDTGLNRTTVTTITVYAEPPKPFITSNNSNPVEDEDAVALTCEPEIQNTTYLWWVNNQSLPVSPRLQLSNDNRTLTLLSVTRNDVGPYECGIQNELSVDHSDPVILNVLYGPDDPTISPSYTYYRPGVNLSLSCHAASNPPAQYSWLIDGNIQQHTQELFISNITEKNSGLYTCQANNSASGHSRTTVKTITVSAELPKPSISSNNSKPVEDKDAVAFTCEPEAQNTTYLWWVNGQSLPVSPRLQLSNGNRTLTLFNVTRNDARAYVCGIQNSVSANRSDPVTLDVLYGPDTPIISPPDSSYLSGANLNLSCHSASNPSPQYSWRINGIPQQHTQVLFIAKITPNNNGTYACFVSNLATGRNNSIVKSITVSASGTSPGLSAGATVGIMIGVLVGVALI
Assay: cell-based or functional assay

SPECIFICITY FACTOR (IC50 in MDA-MB-231 divided by IC50 in MKN-45): 2.5 fold
SPECIFICITY FACTOR (IC50 in MDA-MB-231 divided by IC50 in SK-CO-1): 4.8 fold
SPECIFICITY FACTOR (IC50 in MDA-MB-231 divided by IC50 in SNU-16): 1.8 fold
B1: ADC8 (an analog of labetuzumab govitecan) (antibody, human IgG1, kappa)
heavy: not shown
light: DIQLTQSPSSLSASVGDRVTITCKASQDVGTSVAWYQQKPGKAPKLLIYWTSTRHTGVPSRFSGSGSGTDFTFTISSLQPEDIATYYCQQYSLYRSFGQGTKVEIKRTVAAPSVFIFPPSDEQLKSGTASVVCLLNNFYPREAKVQWKVDNALQSGNSQESVTEQDSKDSTYSLSSTLTLSKADYEKHKVYACEVTHQGLSSPVTKSFNRGEC
modifications: purchased drug-linker on reduced interchain cysteines; purchased drug-linker on reduced interchain cysteines, DAR of 7.7 for the whole antibody
